Literature values as cited in article PMC4316816.

Target: ANP (UniProt P01160)
Chain of UniProt P01160 (P01160 124-151): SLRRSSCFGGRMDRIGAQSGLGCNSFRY

Kd: 24 nM
Substance: GC-A/NPRA (from UniProt P16066)
